Measured values: article PMC1557820 (Nucleic Acids Research, 2006)

Molecular target: T1, N-terminal domain of S. cerevisiae methionyl-tRNA synthetase (residues 1-160) (S. cerevisiae, UniProt P00958 1-160)
T1 sequence (looked up): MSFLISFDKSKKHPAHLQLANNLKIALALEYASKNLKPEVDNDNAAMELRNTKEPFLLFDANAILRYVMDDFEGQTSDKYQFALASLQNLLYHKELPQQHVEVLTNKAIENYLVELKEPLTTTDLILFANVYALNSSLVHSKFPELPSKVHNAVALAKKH
Test: SEC

stoichiometry N: 1
B1: N-terminal domain of S. cerevisiae Arc1p (residues 1-122) (domain or fragment, UniProt P46672 1-122, looked up)
chain: MSDLVTKFESLIISKYPVSFTKEQSAQAAQWESVLKSGQIQPHLDQLNLVLRDNTFIVSTLYPTSTDVHVFEVALPLIKDLVASSKDVKSTYTTYRHILRWIDYMQNLLEVSSTDKLEINHD
